Like-named read-outs stand apart in the source and are kept apart here.
Assays:
[1] = molecular target: T1, Human PD-1 expressed on CHO-K1 cells (CHO-K1/hPD-1) (human, UniProt Q15116 25-288); experiment: FACS, CHO-K1/hPD-1 cells
T1 construct: whole, on cells; also called CHO-K1 cells overexpressing human PD-1
Procedure: (§1) In order to investigate the in vitro binding activity of the PD-1 antigen-binding proteins to human/cynomolgus monkey PD-1, the binding assay at the cellular level was performed using a CHO-K1 cell strain overexpressing human or cynomolgus monkey PD-1 (CHO-K1/hPD-1 or CHO-K1/cyno PD-1, from GenScript). Briefly, the CHO-K1-hPD-1 cells were digested and resuspended in an F-12K complete medium, and the cell density was adjusted to 1×10⁶ cells/mL. The cells were seeded in a 96-well V-bottom plate (Corning, Cat#3894) at 100 μL/well, followed by the addition of the test antigen-binding proteins with concentrations 2-fold of final concentrations obtained by 5-fold gradient dilution were each added at 100 μL/well. The mixtures were well mixed. The maximum final concentration of the antigen-binding proteins was 100 nM or 300 nM. A total of 8-11 concentrations were set. hIgG was used as a control. The cells were incubated at 4° C. for 1 h away from light. Thereafter, the cells in each well were rinsed twice with 100 μL of pre-cooled PBS, and centrifuged at 500 g at 4° C. for 5 min, and then the supernatant was discarded. Then 100 μL of a fluorescent secondary antibody (goat anti-human IgG (H+L) secondary antibody, Alexa Fluor® 488 conjugate, Invitrogen, Cat #A11013, 1:1000) was added to each well. The plate was incubated away from light at 4° C. for 30 min. The cells in each well were rinsed twice with 200 μL of pre-cooled PBS, and centrifuged at 500 g at 4° C. for 5 min, and then the supernatant was discarded. Finally, the cells in each well were resuspended in 200 μL of pre-cooled PBS, and the fluorescence signal values were read using a BD FACS CANTOII.

[2] = molecular target: T2, Human PD-1 protein with histidine and avi tags (ACRO Biosystems, PD1-H82E4) (human, UniProt Q15116 25-167); experiment: BLI (Octet Red96e), PD-1 captured on SA sensor, 1:1 local fit
T2 construct: Captured on streptavidin (SA) sensors in the BLI assay; not shown: histidine and avi tags
T2 sequence (Q15116 25-167 limits assumed): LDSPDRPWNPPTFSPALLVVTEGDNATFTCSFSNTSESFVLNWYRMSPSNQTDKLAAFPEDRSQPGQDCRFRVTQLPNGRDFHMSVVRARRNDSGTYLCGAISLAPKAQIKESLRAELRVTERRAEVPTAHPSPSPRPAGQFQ
Procedure: (§2) Human PD-1 proteins with histidine and avi tags were purchased from the manufacturer ACRO Biosystems (Cat#: PD1-H82E4), and the assay buffer was 1× kinetics buffer (diluted from 10× kinetics buffer (ForteBio, Cat#: 18-1105)) for kinetic assay and dilution of antigens and antibodies. The binding kinetics between the antigen and the antibody was analyzed by the biolayer interferometry (BLI) technique using an Octet molecular interaction analyzer (ForteBio, model: Octet Red96e).
(§3) When the binding kinetics between the antigen and the antibody was determined, the rotation speed of the sensor was set at 1000 rpm/min. The eight SA sensors placed in a column were first equilibrated in an assay buffer for 10 min and then used to capture PD-1 at a capture height of 0.5 nm. Thereafter, the SA sensors were equilibrated in the assay buffer for 100 s, and then were associated with each antibody diluted to a single concentration and with a row of blank buffer wells for 180 s, followed by dissociation for 600 s. A new column of SA sensors were used in each cycle.
(§4) When data analysis was performed using Octet Data Analysis software (Fortebio, version 11.0), the reference signals were subtracted by a single reference mode (reference well), the data were fitted by a “1:1 Local fitting” method, and the kinetic parameters of the binding of the antigen to the antibody were calculated to obtain kon (1/Ms) values, kdis (1/s) values and KD (M) values.

[3] = molecular target: T1, Human PD-1 expressed on CHO-K1 cells …; experiment: FACS, CHO-K1/hPD-1 cells; remark: listed apart in the source
Procedure: as §1

[4] = molecular target: T1, Human PD-1 expressed on CHO-K1 cells …; experiment: FACS blocking of biotin-labeled human PD-L1 binding to CHO-K1-hPD-1 cells
Procedure: Briefly, the CHO-K1-hPD-1 cells were digested and resuspended in an F-12K complete medium, and the cell density was adjusted to 1×10⁶ cells/mL. The cells were seeded in a 96-well V-bottom plate (Corning, Cat#3894) at 100 μL/well, followed by the addition of the test antigen-binding proteins with concentrations 2-fold of final concentrations obtained by 3-fold or 5-fold gradient dilution were each added at 100 μL/well. The mixtures were well mixed. The maximum final concentration of the antigen-binding proteins was 100 nM or 300 nM. A total of 8 concentrations were set. hIgG was used as a control. The cells were incubated at 4° C. for 1 h away from light. […] The cells were incubated at 4° C. away from light for 30 min. The cells in each well were rinsed twice with 100 μL of pre-cooled PBS, and centrifuged at 500 g at 4° C. for 5 min, and then the supernatant was discarded. A fluorescent secondary antibody (PE Streptavidin, BD, Cat# 554061, 1:200) was added at 100 μL/well, and the cells were incubated at 4° C. away from light for 30 min. The cells in each well were rinsed twice with 200 μL of pre-cooled PBS, and centrifuged at 500 g at 4° C. for 5 min, and then the supernatant was discarded. Finally, the cells in each well were resuspended in 200 μL of pre-cooled PBS, the fluorescence signal values were read using a BD FACS CANTOII, and the IC₅₀ values were calculated.

[5] = molecular target: T2, Human PD-1 protein with histidine and …; experiment: BLI; ratio of kdis, apparently PR005090 over the variant
Procedure: as §2, §3, §4

T1 sequence (Q15116 25-288): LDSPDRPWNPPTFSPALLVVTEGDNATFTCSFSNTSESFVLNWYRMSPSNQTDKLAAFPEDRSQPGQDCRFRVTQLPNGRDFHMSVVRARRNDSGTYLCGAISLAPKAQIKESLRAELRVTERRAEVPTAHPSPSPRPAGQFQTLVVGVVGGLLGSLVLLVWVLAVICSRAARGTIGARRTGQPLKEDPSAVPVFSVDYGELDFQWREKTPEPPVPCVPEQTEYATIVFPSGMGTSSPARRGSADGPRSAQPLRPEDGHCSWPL

Binder | EC50 [1] [nM] | MFI Maximum [1] | Kd [2] [nM] | koff [2] [s⁻¹] | kon [2] [M⁻¹ s⁻¹] | EC50 [3] [nM] | MFI Maximum [3] | IC50 [4] [nM] | Maximum inhibition rate (%) [4] [%] | kdis ratio [5]
PR005090 (VHH, Monovalent single-domain (VH) antibody with Flag-6His tag) VHH: EVQLVETGGGLIQPGGSLRLSCAASGFNVSSHYMSWVRQAPGKGREWVSIIDGGGSTYYADSVKGRFTISRDNSKNRLYLQMNSLRAEDTAMYYCARATAVAEKNGYNYPFNYWGQGTLVTVSS | 48.9 | 4150 | 20.8 | 0.00114 | 55000 | 48.9 | 4150 | – | – | –
PR005149 (VHH, Monovalent single-domain (VH) variant of PR002481 with Flag-6His tag) VHH: EVQLVETGGGLIQPGGSLRLSCAASGFNVSSHYMSWVRQAPGKGREWVSIIDKAGSGYYADSVKGRFTISRDNSKNRLYLQMNSLRAEDTAMYYCARATEVREKQGYNYPFNYWGQGTLVTVSS | 10.9 | 11100 | 14 | 4.83e-05 | 3450 | – | – | – | – | 23.7
PR005093 (VHH, Monovalent single-domain (VH) variant of PR002481 with Flag-6His tag) VHH: EVQLVETGGGLIQPGGSLRLSCAASGFNVSSHYMSWVRQAPGKGREWVSIIDGGGSTYYADSVKGRFTISRDNSKNRLYLQMNSLRAEDTAMYYCARATRVREANGYNYPFNYWGQGTLVTVSS | – | – | 4.82 | 0.000636 | 132000 | 10.5 | 4530 | – | – | 1.8
PR005147 (VHH, Monovalent single-domain (VH) variant of PR002481 with Flag-6His tag) VHH: EVQLVETGGGLIQPGGSLRLSCAASGFNVSYYYMSWVRQAPGKGREWVSIIDKAGSTYYGASVKGRFTISRDNSKNRLYLQMNSLRAEDTAMYYCARATMVREKNGYNYPFNYWGQGTLVTVSS | 382 | 18000 | 16.5 | 2.74e-05 | 1660 | – | – | – | – | 41.7
PR005144 (VHH, Monovalent single-domain (VH) variant of PR002481 with Flag-6His tag) VHH: EVQLVETGGGLIQPGGSLRLSCAASGFNVSFYYMSWVRQAPGKGREWVSIIDKSGSTYYAASVKGRFTISRDNSKNRLYLQMNSLRAEDTAMYYCARATEVREKNGYNYPFNYWGQGTLVTVSS | 22.9 | 11600 | 4.51 | 4.52e-05 | 10000 | – | – | – | – | 25.2
PR005141 (VHH, Monovalent single-domain (VH) variant of PR002481 with Flag-6His tag) VHH: EVQLVETGGGLIQPGGSLRLSCAASGFNVSYFYMSWVRQAPGKGREWVSIIDKGGSGYYAASVKGRFTISRDNSKNRLYLQMNSLRAEDTAMYYCARATEVREKNGYNYPFNYWGQGTLVTVSS | 110 | 13300 | 1.49 | 7.75e-05 | 52100 | – | – | – | – | 14.7
PR002473 (antibody, human IgG1, V domains shown, Heavy-chain-only antibody (HCAb), human IgG1 Fc; two heavy chains, no light chain; also called R4004P541H11) VH: EVQLVETGGGLIQPGGSLRLSCAASGFNVSSHYMSWVRQAPGKGLEWVSIIHSGGSTYYADSVKGRFTISRDNSKNRLYLQMNSLIAEDTAVYYCARAIAVAEKNGYNYPFNYWGQGTLVTVSS | 25.6 | 1.04e+06 | – | – | – | – | – | 4.79 | 62.2 | –
PR005145 (VHH, Monovalent single-domain (VH) variant of PR002481 with Flag-6His tag) VHH: EVQLVETGGGLIQPGGSLRLSCAASGFNVSFYYMSWVRQAPGKGREWVSIIDKGGSTYYGDSVKGRFTISRDNSKNRLYLQMNSLRAEDTAMYYCARATEVREKNGYNYPFNYWGQGTLVTVSS | 18 | 10500 | 5.31 | 5.24e-05 | 9860 | – | – | – | – | 21.8
PR002477 (antibody, human IgG1, V domains shown, Heavy-chain-only antibody (HCAb), human IgG1 Fc; two heavy chains, no light chain; also called R4004P547H9) VH: EVQLVETGGGLIQPGGSLRLSCAASGFNVSSHYMSWVRQAPGKGLEWVSIIHSGGSTYYADSVKGRFTISRDNSKNRLYLQMNSLRAEDTAVYYCARAIAVAEKNGYNYPFNYWGQGTLVTVSS | 29.3 | 955000 | – | – | – | – | – | 7.7 | 67.5 | –

The remaining lines, values ahead:

EC50 [1] [nM] | MFI Maximum [1] | Kd [2] [nM] | koff [2] [s⁻¹] | kon [2] [M⁻¹ s⁻¹] | EC50 [3] [nM] | MFI Maximum [3] | IC50 [4] [nM] | Maximum inhibition rate (%) [4] [%] | kdis ratio [5] | Binder
20.6 | 953000 | – | – | – | – | – | 54.5 | 97 | – | PR002478 (antibody, human IgG1, V domains shown, Heavy-chain-only antibody (HCAb), human IgG1 Fc; two heavy chains, no light chain; also called R4004P548A8) VH: EVQLVETGGGLIQPGGSLRLSCAASGFNVSSNYMSWVRQAPGKGLEWVSIIHSGGSTYYADSVKGRFTISRDNSKNRLYLQMNSLRAEDTAVYYCARAIAVAEKNGYNYPFNYWGQGTLVTVSS
22.4 | 10400 | < 0.001 | < 1e-07 | 59000 | – | – | – | – | – | PR005150 (VHH, Monovalent single-domain (VH) variant of PR002481 with Flag-6His tag) VHH: EVQLVETGGGLIQPGGSLRLSCAASGFNVSSFYMSWVRQAPGKGREWVSIIDKAGSTYYGASVKGRFTISRDNSKNRLYLQMNSLRAEDTAMYYCARATEVREKQGYNYPFNYWGQGTLVTVSS
27.6 | 11700 | 1.21 | 5.72e-05 | 47200 | – | – | – | – | 20 | PR005148 (VHH, Monovalent single-domain (VH) variant of PR002481 with Flag-6His tag) VHH: EVQLVETGGGLIQPGGSLRLSCAASGFNVSSHYMSWVRQAPGKGREWVSIIDKAGSGYYAASVKGRFTISRDNSKNRLYLQMNSLRAEDTAMYYCARATEVREKNGYNYPFNYWGQGTLVTVSS
– | – | 1020 | 0.000605 | 593 | – | – | – | – | 1.89 | PR005146 (VHH, Monovalent single-domain (VH) variant of PR002481 with Flag-6His tag) VHH: EVQLVETGGGLIQPGGSLRLSCAASGFNVSFHYMSWVRQAPGKGREWVSIIDGAGSGYYAASVKGRFTISRDNSKNRLYLQMNSLRAEDTAMYYCARATMVREKQGYNYPFNYWGQGTLVTVSS
70.9 | 12400 | 6.76 | 5.55e-05 | 8200 | – | – | – | – | 20.6 | PR005142 (VHH, Monovalent single-domain (VH) variant of PR002481 with Flag-6His tag) VHH: EVQLVETGGGLIQPGGSLRLSCAASGFNVSFYYMSWVRQAPGKGREWVSIIDKGGSGYYAASVKGRFTISRDNSKNRLYLQMNSLRAEDTAMYYCARATEVREKNGYNYPFNYWGQGTLVTVSS
18.5 | 959000 | – | – | – | – | – | 37.5 | 92.1 | – | PR002475 (antibody, human IgG1, V domains shown, Heavy-chain-only antibody (HCAb), human IgG1 Fc; two heavy chains, no light chain; also called R4004P547D9) VH: EVQLVETGGGLIQPGGSLRLSCAASGFNVSSNYMSWVRQAPGKGLEWVSIIHSGGSTYYADSVKGRFTISRDNSKNTLYLQMNSLRAEDTAVYYCARAIAVAEKNGYNYPFNYWGQGTLVTVSS

— US20240034792A1 (HARBOUR BIOMED SHANGHAI, published 2024)
